Reference: patent US20080226682A1, “Immunoactive Compositions for Improved Oral Delivery of Vaccines and Therapeutic Agents” (PerOs Systems Technologies, Inc., priority 2007, published 2008)
Entries after “also recorded” stand apart in the source; their conditions may differ.

B1: PSA: small pea (Pisum sativum) lectin (protein, UniProt P02867 31-217; P02867 218-275, looked up)
Lectin beta chain: TETTSFLITKFSPDQQNLIFQGDGYTTKEKLTLTKAVKNTVGRALYSSPIHIWDRETGNVANFVTSFTFVINAPNSYNVADGFTFFIAPVDTKPQTGGGYLGVFNSAEYDKTTQTVAVEFDTFYNAAWDPSNRDRHIGIDVNSIKSVNTKSWKLQNGEEANVVIAFNAATNVLTVSLTYPNSLEEEN
Lectin alpha chain: VTSYTLSDVVSLKDVVPEWVRIGFSATTGAEYAAHEVLSWSFHSELSGTSSSKQAADA
B2: PNA: peanut (Arachis hypogaea) lectin (protein, UniProt P02872 24-273, looked up)
Galactose-binding lectin: AETVSFNFNSFSEGNPAINFQGDVTVLSNGNIQLTNLNKVNSVGRVLYAMPVRIWSSATGNVASFLTSFSFEMKDIKDYDPADGIIFFIAPEDTQIPAGSIGGGTLGVSDTKGAGHFVGVEFDTYSNSEYNDPPTDHVGIDVNSVDSVKTVPWNSVSGAVVKVTVIYDSSTKTLSVAVTNDNGDITTIAQVVDLKAKLPERVKFGFSASGSLGGRQIHLIRSWSFTSTLITTTRRSIDNNEKKIMNMASA

Assays:
[1] = system: Trout HK Cells; assay: Immune cell proliferation, tetrazolium colorimetric reading (Stimulation Index); format: cell-based
[2] = system: Sheep PBMC; assay: as above
[3] = system: Feline PBMC; assay: as above
[4] = system: Calf PBMC; assay: as above
[5] = system: equine immune cells; assay: Leukocyte mitogenic response (BrdU-based ELISA, stimulation index); format: cell-based; settings: purified lectin at mitogen concentration (5-40 μg/mL), day 4
[6] = system: Swine PBMC; assay: Immune cell proliferation, tetrazolium colorimetric reading (Stimulation Index)
[7] = system: feline immune cells; assay: Leukocyte mitogenic response (BrdU-based ELISA, stimulation index); format: cell-based; settings: purified lectin at mitogen concentration (5-40 μg/mL), day 4
[8] = system: salmon immune cells; assay: as above; format: cell-based; settings: purified lectin at mitogen concentration (5-40 μg/mL), day 4
[9] = system: Chicken PBMC; assay: Immune cell proliferation, tetrazolium colorimetric reading (Stimulation Index)
[10] = system: bovine immune cells; assay: Leukocyte mitogenic response (BrdU-based ELISA, stimulation index); format: cell-based; settings: purified lectin at mitogen concentration (5-40 μg/mL), day 4
[11] = system: Mouse Splenocytes; assay: Immune cell proliferation, tetrazolium colorimetric reading (Stimulation Index); format: cell-based, BALB/c mice
[12] = system: human immune cells; assay: Leukocyte mitogenic response (BrdU-based ELISA, stimulation index); format: cell-based; settings: purified lectin at mitogen concentration (5-40 μg/mL), day 4
[13] = system: swine immune cells; assay: as above; format: cell-based; settings: purified lectin at mitogen concentration (5-40 μg/mL), day 4
Text: (§1) Lymphocytes are a representative immune system prototypic cell that may be used in in vitro assays for immunological effects of lectins, saponins and other components of natural plant or animal products. Exemplary lymphocytes for representative target species may be obtained and used in the Examples disclosed herein. The effects of various compositions on lymphocyte proliferation is examined using a standard tetrazolium based colorimetric assay (MTT). An Alamar blue-based colorimetric assay gave equivalent results to [^3H]-thymidine incorporation assay. The MTT colorimetric assay has also been used in lymphocyte proliferation assays using chicken splenocytes. These and other known assays may be utilized in the methods disclosed herein.
(§2) In one non-limiting example, cells from anterior fish kidney are obtained by forcing the aseptically removed tissue through a 100 μm cell strainer into L-15 medium supplemented with 2% fetal bovine serum (FBS), 100 U mL^−1 penicillin, 100 μg mL^−1 streptomycin, and 10 U mL^−1 sodium heparin (Processing medium, PM). The single-cell suspension is removed from the settled tissue fragments and cells are pelleted by centrifugation at 500×g for 10 min at 4° C. […]
(§3) The number of viable kidney or blood leukocytes isolated from each fish is determined by trypan blue exclusion (0.1% trypan blue in PM), and the cells are pelleted as described above.
(§4) Mitogen concentrations used to stimulate the isolated leukocytes are as follows: 10 μg mL^−1 SBA, 10 μg mL^−1 PHA-E or PHA-L, 5 μg mL^−1 LBL, 20 μg mL^−1 LCA or LOA, 10 μg mL^−1 ConA, 40 ug mL^−1 PSA and 5 μg mL^−1 PNA. […] The mitogenic response is measured on the fourth day of incubation post-mitogen stimulation using a BrdU-based ELISA at room temperature as described (Gauthier, D. T. 2003). Stimulation index (SI) values are calculated as the replicate mean optical density for a given set of mitogen-treated leukocytes divided by the replicate mean optical density of the associated mitogen free (control) leukocytes. […]

[14] = system: shrimp immune cells; assay: as above; format: cell-based; settings: purified lectin at mitogen concentration (5-40 μg/mL), day 4
[15] = system: canine immune cells; assay: as above; format: cell-based; settings: purified lectin at mitogen concentration (5-40 μg/mL), day 4
[16] = system: trout immune cells; assay: as above; format: cell-based; settings: purified lectin at mitogen concentration (5-40 μg/mL), day 4
Text: as §1, §2, §3, §4

Molecule | lowest concentration of lectins required for stimulation response above background [1] | lowest concentration of lectins required for stimulation response above background [2] | lowest concentration of lectins required for stimulation response above background [3] | lowest concentration of lectins required for stimulation response above background [4] | Immunomodulatory effect (stimulation index class) [5] | lowest concentration of lectins required for stimulation response above background [6] | Immunomodulatory effect (stimulation index class) [7] | Immunomodulatory effect (stimulation index class) [8] | lowest concentration of lectins required for stimulation response above background [9] | Immunomodulatory effect (stimulation index class) [10] | lowest concentration of lectins required for stimulation response above background [11] | Immunomodulatory effect (stimulation index class) [12] | Immunomodulatory effect (stimulation index class) [13] | Immunomodulatory effect (stimulation index class) [14] | Immunomodulatory effect (stimulation index class) [15] | Immunomodulatory effect (stimulation index class) [16]
SBA: Soybean (Glycine max) Lectin | refractory; also recorded: Negative | 50 µg/mL | 1 μg/ml ug/ml | 50 µg/mL | −− (<1 is assigned a value of −− (anti-mitogenic)) | 50 µg/mL | + (between 1 and 4.9 is assigned a value of + (weak mitogen)) | +++ (≧10 is assigned a value of +++ (strong mitogen)) | Negative | + (between 1 and 4.9 is assigned a value of + (weak mitogen)) | Negative | ++ (between 5 and 9.9 is assigned a value of ++ (moderate mitogen)) | −− (<1 is assigned a value of −− (anti-mitogenic)) | – | – | –
B1 | – | – | – | – | + (between 1 and 4.9 is assigned a value of + (weak mitogen)) | – | −− (<1 is assigned a value of −− (anti-mitogenic)) | −− (<1 is assigned a value of −− (anti-mitogenic)) | – | +++ (≧10 is assigned a value of +++ (strong mitogen)) | – | ++ (between 5 and 9.9 is assigned a value of ++ (moderate mitogen)) | – | +++ (≧10 is assigned a value of +++ (strong mitogen)) | + (between 1 and 4.9 is assigned a value of + (weak mitogen)) | +++ (≧10 is assigned a value of +++ (strong mitogen))
B2 | – | – | – | – | ++ (between 5 and 9.9 is assigned a value of ++ (moderate mitogen)) | – | +++ (≧10 is assigned a value of +++ (strong mitogen)) | +++ (≧10 is assigned a value of +++ (strong mitogen)) | – | + (between 1 and 4.9 is assigned a value of + (weak mitogen)) | – | + (between 1 and 4.9 is assigned a value of + (weak mitogen)) | – | −− (<1 is assigned a value of −− (anti-mitogenic)) | ++ (between 5 and 9.9 is assigned a value of ++ (moderate mitogen)) | −− (<1 is assigned a value of −− (anti-mitogenic))
